Data taken from paper PMC8894380, “A multi-factor trafficking site on the spliceosome remodeling enzyme BRR2 recruits C9ORF78 to regulate alternative splicing” (Nature Communications, 2022).

T1: BRR2 C-terminal cassette (BRR2^CC, residues 1282-2136) (human, UniProt O75643 1282-2136)
T1 construct: BRR2 (SNRNP200), human, C-terminal helicase cassette, residues 1282-2136; The His10 tag is named only for the peptide SPOT array; also called His10-BRR2^CC
T1 sequence (looked up): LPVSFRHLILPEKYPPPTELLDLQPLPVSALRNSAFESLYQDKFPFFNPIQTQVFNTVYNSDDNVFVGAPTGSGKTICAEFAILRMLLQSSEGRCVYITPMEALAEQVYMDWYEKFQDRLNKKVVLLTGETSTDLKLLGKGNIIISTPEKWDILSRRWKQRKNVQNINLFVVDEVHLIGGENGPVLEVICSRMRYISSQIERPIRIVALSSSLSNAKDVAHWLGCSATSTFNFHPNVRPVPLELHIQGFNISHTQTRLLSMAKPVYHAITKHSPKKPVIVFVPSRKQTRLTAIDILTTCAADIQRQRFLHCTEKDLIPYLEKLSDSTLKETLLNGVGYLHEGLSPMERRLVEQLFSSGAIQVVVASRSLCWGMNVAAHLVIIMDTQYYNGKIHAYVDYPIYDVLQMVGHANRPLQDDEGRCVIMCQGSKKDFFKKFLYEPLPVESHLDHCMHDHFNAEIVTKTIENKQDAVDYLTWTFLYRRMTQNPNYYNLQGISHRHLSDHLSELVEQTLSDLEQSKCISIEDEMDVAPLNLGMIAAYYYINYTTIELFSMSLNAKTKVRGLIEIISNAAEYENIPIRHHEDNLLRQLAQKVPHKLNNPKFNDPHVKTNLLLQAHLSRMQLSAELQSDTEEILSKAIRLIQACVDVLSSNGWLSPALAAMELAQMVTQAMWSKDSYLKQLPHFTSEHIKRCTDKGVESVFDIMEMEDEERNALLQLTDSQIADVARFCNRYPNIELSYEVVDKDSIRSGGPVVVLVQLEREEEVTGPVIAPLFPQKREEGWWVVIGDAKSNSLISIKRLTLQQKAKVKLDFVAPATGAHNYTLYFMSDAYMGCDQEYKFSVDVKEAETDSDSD


What was measured:
Settings in all cases: both partners purified
[1] = molecular target: T2, BRR2^HR-PRPF8^Jab1 complex (human, UniProt O75643 395-2129; Q6P2Q9 2064-2335); experiment: SEC; competition: BRR2^HR with equimolar PRPF8^Jab1 and FBP21^116-376 10 min on ice, then with or without equimolar GST-C9ORF78 for 10 min; analytical SEC as above
T2 construct: PRPF8, human, Jab1/MPN-like domain, residues 2064-2335; source: purified BRR2^HR and PRPF8^Jab1 mixed in equimolar amounts

[2] = molecular target: T3, BRR2 helicase region (BRR2^HR, residues 395-2129) (human, UniProt O75643 395-2129); experiment: SEC; analytical SEC, Superdex 200 increase 3.2/300, 20 mM Tris-HCl pH 8.0, 200 mM NaCl, 1 mM DTT; 75 ug BRR2 construct or PRPF8^Jab1 with 1.5-fold molar excess of partner, pre-incubated 10 min on ice; fractions by SDS-PAGE
T3 construct: For the cryoEM complex with C9ORF78 the co-purified proteins were treated with TEV protease and recycled on Ni-NTA; also called His10-BRR2^HR; source: insect cells

[3] = molecular target: T3, BRR2 helicase region (BRR2^HR, residues …); experiment: cryo-EM structure; complexes purified by SEC, 20 mM Tris-HCl pH 8.0, 150 mM NaCl, 1 mM DTT, 5 mg/ml, 0.15% n-octylglucoside; Titan Krios 300 kV
[4] = molecular target: T1, BRR2 C-terminal cassette (BRR2^CC, …); experiment: SEC; analytical SEC, Superdex 200 increase 3.2/300, 20 mM Tris-HCl pH 8.0, 200 mM NaCl, 1 mM DTT; 75 ug BRR2 construct or PRPF8^Jab1 with 1.5-fold molar excess of partner, pre-incubated 10 min on ice; fractions by SDS-PAGE
[5] = molecular target: T4, full-length BRR2 (BRR2^FL) (human, UniProt O75643 1-2136); experiment: as above
T4 construct: BRR2 (SNRNP200), human, full length; The His10 tag is named only for the peptide SPOT array; also called His10-BRR2^FL; SNRNP200

T3 sequence (O75643 395-2129): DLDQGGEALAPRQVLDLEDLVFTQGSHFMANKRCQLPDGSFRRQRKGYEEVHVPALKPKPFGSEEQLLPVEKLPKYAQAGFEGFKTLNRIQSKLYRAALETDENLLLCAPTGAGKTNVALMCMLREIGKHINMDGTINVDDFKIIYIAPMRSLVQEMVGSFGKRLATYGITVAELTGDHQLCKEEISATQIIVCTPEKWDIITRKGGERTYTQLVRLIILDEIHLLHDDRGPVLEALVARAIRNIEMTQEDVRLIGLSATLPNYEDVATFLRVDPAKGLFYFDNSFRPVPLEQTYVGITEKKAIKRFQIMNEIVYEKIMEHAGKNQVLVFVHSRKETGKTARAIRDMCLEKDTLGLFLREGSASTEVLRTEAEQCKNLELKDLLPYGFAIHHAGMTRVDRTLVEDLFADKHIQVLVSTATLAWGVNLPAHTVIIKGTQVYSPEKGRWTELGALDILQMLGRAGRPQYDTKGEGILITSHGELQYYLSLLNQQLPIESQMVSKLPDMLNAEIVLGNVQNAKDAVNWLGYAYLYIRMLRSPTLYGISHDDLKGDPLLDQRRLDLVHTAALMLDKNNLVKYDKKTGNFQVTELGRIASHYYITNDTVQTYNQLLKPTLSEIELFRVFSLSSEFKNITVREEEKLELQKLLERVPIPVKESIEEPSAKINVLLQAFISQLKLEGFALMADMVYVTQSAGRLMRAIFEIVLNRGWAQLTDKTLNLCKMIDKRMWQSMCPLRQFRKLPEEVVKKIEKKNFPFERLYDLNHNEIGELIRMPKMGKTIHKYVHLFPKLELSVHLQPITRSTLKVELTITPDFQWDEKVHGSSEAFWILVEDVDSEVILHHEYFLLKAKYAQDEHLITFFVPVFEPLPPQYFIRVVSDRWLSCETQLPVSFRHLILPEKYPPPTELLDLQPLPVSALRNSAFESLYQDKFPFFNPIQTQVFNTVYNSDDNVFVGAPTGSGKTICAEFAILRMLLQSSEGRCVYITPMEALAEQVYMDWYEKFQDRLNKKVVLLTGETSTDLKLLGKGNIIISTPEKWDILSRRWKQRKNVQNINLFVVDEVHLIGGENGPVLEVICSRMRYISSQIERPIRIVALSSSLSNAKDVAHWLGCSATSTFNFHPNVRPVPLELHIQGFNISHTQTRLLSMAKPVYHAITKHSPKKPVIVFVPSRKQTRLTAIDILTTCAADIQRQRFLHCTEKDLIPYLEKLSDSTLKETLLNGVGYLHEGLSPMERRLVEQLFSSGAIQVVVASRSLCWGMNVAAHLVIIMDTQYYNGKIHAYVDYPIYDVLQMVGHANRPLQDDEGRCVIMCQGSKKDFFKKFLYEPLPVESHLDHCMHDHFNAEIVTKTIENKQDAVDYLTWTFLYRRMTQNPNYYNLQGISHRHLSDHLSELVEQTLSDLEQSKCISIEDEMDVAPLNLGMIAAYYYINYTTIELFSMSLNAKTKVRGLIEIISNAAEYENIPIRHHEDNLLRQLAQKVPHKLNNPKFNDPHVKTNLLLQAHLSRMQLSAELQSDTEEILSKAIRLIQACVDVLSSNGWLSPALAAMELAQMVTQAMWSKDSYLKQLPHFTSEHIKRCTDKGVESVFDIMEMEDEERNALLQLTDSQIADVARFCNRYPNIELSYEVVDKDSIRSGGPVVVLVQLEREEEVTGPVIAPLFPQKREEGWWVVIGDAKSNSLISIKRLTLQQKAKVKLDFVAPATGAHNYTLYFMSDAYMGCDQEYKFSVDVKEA

binding result [1]	binding result [2]	binding result [3]	Binder	also measured
binds	–	–	FBP21^116-376 (domain or fragment, human, UniProt O75554 116-376, looked up) KKKRKKDPSKGRWVEGITSEGYHYYYDLISGASQWEKPEGFQGDLKKTAVKTVWVEGLSEDGFTYYYNTETGESRWEKPDDFIPHTSDLPSSKVNENSLGTLDESKSSDSHSDSDGEQEAEEGGVSTETEKPKIKFKEKNKNSDGGSDPETQKEKSIQKQNSLGSNEEKSKTLKKSNPYGEWQEIKQEVESHEEVDLELPSTENEYVSTSEADGGGEPKVVFKEKTVTSLGVMADGVAPVFKKRRTENGKSRNLRQRGDDQ	–
–	binds	–	PRPF8 Jab1 domain (PRPF8^Jab1; residues 2064-2335) (domain or fragment, PRPF8, human, Jab1/MPN-like domain, residues 2064-2335; also called Jab1/MPN-like domain) not shown	–
–	–	binds	FBP21^200-376 (domain or fragment, human, UniProt O75554 200-376, looked up) HTSDLPSSKVNENSLGTLDESKSSDSHSDSDGEQEAEEGGVSTETEKPKIKFKEKNKNSDGGSDPETQKEKSIQKQNSLGSNEEKSKTLKKSNPYGEWQEIKQEVESHEEVDLELPSTENEYVSTSEADGGGEPKVVFKEKTVTSLGVMADGVAPVFKKRRTENGKSRNLRQRGDDQ	–
binds	binds	–	His6-GST-C9ORF78 (natural protein, human, C9ORF78, human, 34 kDa; Tag cleavage led to degradation and was omitted for functional analyses in vitro; also called GST-C9ORF78^wt; source: E. coli BL21 RIL (pETM30), purified (Glutathione Sepharose, SEC); not shown: His6, N-terminal, kept; GST, N-terminal, kept) MPVVRKIFRRRRGDSESEEDEQDSEEVRLKLEETREVQNLRKRPNGVSAVALLVGEKVQEETTLVDDPFQMKTGGMVDMKKLKERGKDKISEEEDLHLGTSFSAETNRRDEDADMMKYIETELKKRKGIVEHEEQKVKPKNAEDCLYELPENIRVSSAKKTEEMLSNQMLSGIPEVDLGIDAKIKNIISTEDAKARLLAEQQNKKKDSETSFVPTNMAVNYVQHNRFYHEELNAPIRRNKEEPKARPLRVGDTEKPEPERSPPNRKRPANEKATDDYHYEKFKKMNRRY	binding result [4]: binds; binding result [5]: binds
–	–	binds	C9ORF78 (His6/GST tag cleaved, co-purified with BRR2^HR) (natural protein, human, C9ORF78, human; the four N-terminal and 231 C-terminal residues not located in the map; 4 + 54 + 231 residues add up to 289, the length that I recall for the whole protein; not shown: His6, N-terminal, cleaved; GST, N-terminal, cleaved) MPVVRKIFRRRRGDSESEEDEQDSEEVRLKLEETREVQNLRKRPNGVSAVALLVGEKVQEETTLVDDPFQMKTGGMVDMKKLKERGKDKISEEEDLHLGTSFSAETNRRDEDADMMKYIETELKKRKGIVEHEEQKVKPKNAEDCLYELPENIRVSSAKKTEEMLSNQMLSGIPEVDLGIDAKIKNIISTEDAKARLLAEQQNKKKDSETSFVPTNMAVNYVQHNRFYHEELNAPIRRNKEEPKARPLRVGDTEKPEPERSPPNRKRPANEKATDDYHYEKFKKMNRRY	–
–	binds	–	GST-C9ORF78^F8A (natural protein, human, C9ORF78, human, with F8A; source: E. coli BL21 RIL (pETM30), purified (Glutathione Sepharose, SEC); not shown: His6, N-terminal, kept; GST, N-terminal, kept) MPVVRKIARRRRGDSESEEDEQDSEEVRLKLEETREVQNLRKRPNGVSAVALLVGEKVQEETTLVDDPFQMKTGGMVDMKKLKERGKDKISEEEDLHLGTSFSAETNRRDEDADMMKYIETELKKRKGIVEHEEQKVKPKNAEDCLYELPENIRVSSAKKTEEMLSNQMLSGIPEVDLGIDAKIKNIISTEDAKARLLAEQQNKKKDSETSFVPTNMAVNYVQHNRFYHEELNAPIRRNKEEPKARPLRVGDTEKPEPERSPPNRKRPANEKATDDYHYEKFKKMNRRY	–
